We go through one molecule from PMC5840378.

This assay concerns the target T1, 14-3-3ε full length (14-3-3ε FL), recombinant, P62258.
T1 chain: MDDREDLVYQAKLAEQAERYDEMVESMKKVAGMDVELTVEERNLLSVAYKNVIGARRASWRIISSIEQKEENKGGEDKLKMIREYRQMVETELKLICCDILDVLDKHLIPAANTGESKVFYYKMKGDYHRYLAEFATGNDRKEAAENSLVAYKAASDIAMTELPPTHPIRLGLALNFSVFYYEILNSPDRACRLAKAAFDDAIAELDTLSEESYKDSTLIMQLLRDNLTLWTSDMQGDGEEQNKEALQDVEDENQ
The experiment in a line: AUC + other: dynamic light scattering; sedimentation velocity, 20 °C, 45,000 r.p.m., 37 μM, 5 mM sodium phosphate pH 6.3; DLS at 0.1 mg/mL, 25 °C, same buffer. The following applies: remark: other sources report otherwise.

B1: 14-3-3ε full length (14-3-3ε FL), recombinant, P62258 1-255 (natural protein)
chain: T1 chain
Consider B1, for which the stoichiometry N (as a rule, the number of molecules, sites or subunits per partner or assembly) is 2.
